Test results published in PMC9443943.

B1: Transmembrane 4 L six family member 5 (TM4SF5): N138A/N155Q, Gly− (protein)
parent chain: MCTGKCARCVGLSLITLCLVCIVANALLLVPNGETSWTNTNHLSLQVWLMGGFIGGGLMVLCPGIAAVRAGGKGCCGAGCCGNRCRMLRSVFSSAFGVLGAIYCLSVSGAGLRNGPRCLMNGEWGYHFEDTAGAYLLNRTLWDRCEAPPRVVPWNVTLFSLLVAASCLEIVLCGIQLVNATIGVFCGDCRKKQDTPH
B2: Transmembrane 4 L six family member 5 (TM4SF5): N138A (protein)
parent chain: MCTGKCARCVGLSLITLCLVCIVANALLLVPNGETSWTNTNHLSLQVWLMGGFIGGGLMVLCPGIAAVRAGGKGCCGAGCCGNRCRMLRSVFSSAFGVLGAIYCLSVSGAGLRNGPRCLMNGEWGYHFEDTAGAYLLNRTLWDRCEAPPRVVPWNVTLFSLLVAASCLEIVLCGIQLVNATIGVFCGDCRKKQDTPH
B3: Transmembrane 4 L six family member 5 (TM4SF5): N155Q (protein)
parent chain: MCTGKCARCVGLSLITLCLVCIVANALLLVPNGETSWTNTNHLSLQVWLMGGFIGGGLMVLCPGIAAVRAGGKGCCGAGCCGNRCRMLRSVFSSAFGVLGAIYCLSVSGAGLRNGPRCLMNGEWGYHFEDTAGAYLLNRTLWDRCEAPPRVVPWNVTLFSLLVAASCLEIVLCGIQLVNATIGVFCGDCRKKQDTPH

Legend:
[1] = immunoblot of sEVs from transfected Huh7 cells; details: glycan lost; control: TM4SF5-Strep WT
[2] = sucrose gradient sEV fractions from SNU449, Strep immunoblot; details: glycan lost; control: TM4SF5-WT

Protein	localisation_or_trafficking [1]	localisation_or_trafficking [2]
B1	abolishes	abolishes
B2	decreases	
B3	no change	
